Experimental data taken from US10550151B2, “Cell-penetrating compositions and methods using same” (Yale University, priority 2013, dated 2020).
Where no end group is shown, it is not given here.

Assays:
eNOS = target: T1, eNOS (Bos taurus, UniProt P29473); test: VEGF-induced NO release by cultured BAEC (NO chemiluminescence); assay type: cell-based, bovine; conditions: for inhibition of VEGF-induced NO release: 6 h pretreatment; for effect on basal (unstimulated) NO release: six-hour pretreatment, no VEGF
T1 construct: effect of Endo5 fused to Cav (endo5-Cav) on NO release by cultured BAEC; endogenous in cells; host or cells: BAEC (cultured endothelial cells)
T1 sequence (P29473 2-1205 limits assumed): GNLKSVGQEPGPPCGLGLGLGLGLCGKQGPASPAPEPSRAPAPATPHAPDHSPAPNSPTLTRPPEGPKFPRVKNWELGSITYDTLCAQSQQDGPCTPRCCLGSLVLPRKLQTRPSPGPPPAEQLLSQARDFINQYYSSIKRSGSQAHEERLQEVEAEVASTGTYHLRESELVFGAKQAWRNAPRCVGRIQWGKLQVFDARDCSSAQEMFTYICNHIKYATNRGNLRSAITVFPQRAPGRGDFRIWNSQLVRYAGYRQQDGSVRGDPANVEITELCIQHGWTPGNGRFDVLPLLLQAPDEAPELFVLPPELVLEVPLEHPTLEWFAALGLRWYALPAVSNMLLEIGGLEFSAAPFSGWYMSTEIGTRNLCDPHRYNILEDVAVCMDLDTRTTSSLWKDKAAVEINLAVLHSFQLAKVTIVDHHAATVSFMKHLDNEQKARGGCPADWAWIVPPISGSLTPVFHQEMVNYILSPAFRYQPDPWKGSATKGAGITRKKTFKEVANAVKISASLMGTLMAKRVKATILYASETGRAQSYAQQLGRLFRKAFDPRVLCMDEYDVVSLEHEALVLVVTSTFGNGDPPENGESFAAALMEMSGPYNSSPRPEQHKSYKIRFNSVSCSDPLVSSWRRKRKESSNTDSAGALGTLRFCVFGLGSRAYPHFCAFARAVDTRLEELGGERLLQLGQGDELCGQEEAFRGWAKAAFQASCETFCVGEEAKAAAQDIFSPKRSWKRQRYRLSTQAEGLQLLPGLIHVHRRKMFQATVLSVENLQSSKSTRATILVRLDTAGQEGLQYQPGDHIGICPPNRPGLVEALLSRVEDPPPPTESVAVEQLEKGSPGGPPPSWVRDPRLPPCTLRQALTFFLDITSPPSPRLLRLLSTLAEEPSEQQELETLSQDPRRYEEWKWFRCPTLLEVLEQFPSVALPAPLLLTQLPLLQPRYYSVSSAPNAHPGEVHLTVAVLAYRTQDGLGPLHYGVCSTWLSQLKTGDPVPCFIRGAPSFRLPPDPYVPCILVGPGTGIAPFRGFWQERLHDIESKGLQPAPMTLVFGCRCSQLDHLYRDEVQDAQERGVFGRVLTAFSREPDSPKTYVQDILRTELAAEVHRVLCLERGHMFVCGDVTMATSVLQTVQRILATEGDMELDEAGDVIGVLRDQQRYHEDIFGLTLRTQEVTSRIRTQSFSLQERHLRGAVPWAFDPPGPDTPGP
Procedure: Briefly, confluent BAEC were incubated in serum-free DMEM for 6 hours with peptides. Media was removed and fresh serum-free DMEM was added, with or without VEGF (10^−9 M) for 30 min. Media was collected, cells were trypsinized and counted, and nitrites levels in the supernatant were determined by using a Sievers NO chemiluminescence analyzer.
AP-Cav blocks agonist-induced eNOS activity in cultured endothelial cells (Bucci et al., 2000, Nat. Med. 6:1362-7), and this biological activity is dependent on AP-Cav's internalization, dosage and pretreatment time. In the present study, the uptake potential of Endo5 was compared with that of AP by testing the effect of Endo5 fused to Cav (endo5-Cav) on NO release by cultured BAEC.

HUVEC = test: CPP imaging in live HUVEC (epifluorescence, pulse/chase); assay type: cell-based, human; conditions: for staining pattern after 1 h pulse: 37° C.; for staining pattern after two-hour chase: 2 h chase in absence of CPP
Procedure: Freshly isolated HUVEC were grown in M199 media supplemented with glutamine, 10% FBS and endothelial cell growth supplement on Petri dishes with glass bottom. Since CPPs bind non-specifically to glass, the background fluorescence was reduced by pretreating glass-bottom Petri dishes with a blocking solution containing unlabelled AP and Endo5 for 30 min (5×10^−5 M) in colorless M199 media with 1% FBS. After cell seeding, media was removed and carboxyfluorescin-labeled Endo5 and Rhodamine-labeled AP were added to cells (10^−5 M) and cells were incubated at 37° C. and 5% CO2 for 1 hour (pulse). Media was removed, cells were rinsed once with warm culture media and peptide uptake was rapidly visualized on a Zess Axiovert inverted fluorescence microscope by performing a Z-stack of captured images followed by volume deconvolution (Openlab software). The new media was left on cells for an additional 2 hours (total 3 hours) to chase CPP localization, and cells were visualized again (chase).
In the present study, epifluorescence microscopy experiments were performed in live HUVEC to compare the uptake mechanism of Endo5 to AP. After blocking glass bottom Petri dishes with unlabelled AP and Endo5 to minimize non-specific binding of labeled peptides, freshly isolated HUVEC were grown to 50% confluent and labeled with a “pulse” of carboxyfluorescein-Endo5 and rhodamine-AP (10^−6M) for 1 h, rinsed, followed by a two-hour “chase” for a total of 3 hours. Deconvoluted images were captured after the “pulse” and “chase” periods. […] (FIG. 5A). Nuclear staining was nearly completely absent (dark central area).

[1] = Peptide solubility in NO release dose-response experiment; assay type: physicochemical; conditions: above 2.5×10^-5 M
[2] = peptide 10^-5 M, VEGF 10^-9 M 30 min

| Substance | inhibition of VEGF-induced NO release (eNOS; peptide 2×10^-6 M) | inhibition of VEGF-induced NO release (eNOS; [2]) | effect on basal (unstimulated) NO release (eNOS; peptide 10^-5 M) | staining pattern after 1 h pulse (HUVEC) | staining pattern after two-hour chase (HUVEC) | solubility limit [1] |
| --- | --- | --- | --- | --- | --- | --- |
| Endo5-CavAB: Endo5 fused to the Cav AB domain (caveolin-1 amino acids 82-95, SEQ ID NO: 6); a 19-mer peptide (RRPPRDGIWKASFTTFTVT) | 49% | completely blocked | – | – | – | – |
| RQIKIWFQNRRMKWKK [AP, reference compound] | – | no significant effect | no significant effect | diffuse punctate cytoplasmic staining | more concentrated rather than diffuse pattern | – |
| RQIKIWFQNRRMKWKKDGIWKASFTTFTVTKYWFYR [AP-Cav] | – | – | – | – | – | peptide insolubility at greater dose |
| RRPPR [Endo5, short five-amino acid cell-permeable peptide] | – | no significant effect | no significant effect | diffuse punctate cytoplasmic staining | more concentrated rather than diffuse pattern | – |
